Reference: the RNAGym collection of RNA variant scans (doi:10.7554/elife.80360)

B1: Hammerhead Ribozyme (parent)
chain: ACCGGAUGUGCUUUCCGGUCUGAUGAGUCCGUGAGGACGAAACAG

Variants of: B1
Assay: self-cleavage, relative activity (ratio to wild type); higher = more cleavage; co-transcriptional

Variant	self-cleavage
ACCGGAUGUGCUUUCCGAUCUGAUGAGUUCGUGAGGACGAAACAG [G18A C29U]	0.574
ACCGGAUGUGCUGUCCGGUCUGAUGAGUCCGUGGGGACGAAACAG [U13G A34G]	0.886
ACCGAAUGUGCUUUCCGGUCUGAUGAGUCCGUGAGGACGAAACCG [G5A A44C]	0.662
ACCGGAUGUACUUUGCGGUCUGAUGAGUCCGUGAGGACGAAACAG [G10A C15G]	0.899
ACCGGAUGCGCUUUCCGGUCUGAUGAGUCCGUUAGGACGAAACAG [U9C G33U]	1.24
ACCGGAUGUGCAUUCCGGUCUUAUGAGUCCGUGAGGACGAAACAG [U12A G22U]	0.328
ACCGGAUGUGCUUUCAGGUCUGAUGAGUCCGUGAGGACGAAACAU [C16A G45U]	0.563
ACCGGAUGUGCUUUCCAGUUUGAUGAGUCCGUGAGGACGAAACAG [G17A C20U]	0.442
ACCGGAUGUGCUUUCCGGUCUAAUGAGUCCGUGAGGACAAAACAG [G22A G39A]	0.367
ACCGGCUGUGCUUUCUGGUCUGAUGAGUCCGUGAGGACGAAACAG [A6C C16U]	0.689
ACCGGAUGGGGUUUCCGGUCUGAUGAGUCCGUGAGGACGAAACAG [U9G C11G]	1.17
ACCGGAUGUGCUUUCCGGUCUGAUGAAUCGGUGAGGACGAAACAG [G27A C30G]	0.458
AACGGAUGUGCUUUCCGGUCUGAUGAGUCCGUGAGGACGAAACGG [C2A A44G]	0.989
ACCCGAUGUGCUUUCCGGGCUGAUGAGUCCGUGAGGACGAAACAG [G4C U19G]	0.322
ACCGGAUGUGCUUUCCGGUCUGAUGAGUCCGUGAGGACCAAAUAG [G39C C43U]	0.368
ACCGGAUGUGCUUUCUGGUCUGAUGAGUCCGUGAGGACGAAAGAG [C16U C43G]	0.352
ACCGGAUGUGCGUUCCGGUCUGAUGGGUCCGUGAGGACGAAACAG [U12G A26G]	0.346
ACCGGAAGUGCUUUCCGGUCUGAUGAGUCCGAGAGGACGAAACAG [U7A U32A]	1.38
AACGGAUUUGCUUUCCGGUCUGAUGAGUCCGUGAGGACGAAACAG [C2A G8U]	0.794
AAAGGAUGUGCUUUCCGGUCUGAUGAGUCCGUGAGGACGAAACAG [C2A C3A]	0.476
ACCGGAUGUGCUUUUCGGUCUGAUGAGUCCGUGAGGAGGAAACAG [C15U C38G]	0.689
ACCGUAUUUGCUUUCCGGUCUGAUGAGUCCGUGAGGACGAAACAG [G5U G8U]	0.81
ACCGGAUGUGCUUUCCAGUCUGAUGAGUACGUGAGGACGAAACAG [G17A C29A]	0.441

Variant	self-cleavage
ACCGGAUGUGCUUUCCGGUCUGAUGAGUCCGUGAGUAUGAAACAG [G36U C38U]	0.674
ACCGUAUGUUCUUUCCGGUCUGAUGAGUCCGUGAGGACGAAACAG [G5U G10U]	1.15
ACCGGAUGUGCUUUCCGGUCUGGUGAGUCCGCGAGGACGAAACAG [A23G U32C]	0.375
AGCGGAUGUGCUUUCCGGUCAGAUGAGUCCGUGAGGACGAAACAG [C2G U21A]	0.314
ACCGGAUGUCCUUUCCGGUCUGAUGAAUCCGUGAGGACGAAACAG [G10C G27A]	0.887
ACCGGAUGUGGUUUCCGGUCUGAUGAGUCCGUGAGGACGAAACAC [C11G G45C]	0.962
ACAGGAUGUGCUUUCCGGUCUGAUGAGUCCGUGAGAACGAAACAG [C3A G36A]	0.287
CCCGGAUGUGCUUUCCGGUCUGAUGAGUCCCUGAGGACGAAACAG [A1C G31C]	0.503
ACCGGAUGUGCUUUCCGGUCUGAUGAGUCCGUGAGAACGAAAGAG [G36A C43G]	0.274
ACCGGAUGUGCUAUCCGGUCUGAUGAGUCCGUGAGGAAGAAACAG [U13A C38A]	0.808
ACCGGAUGUGCUUUCCUGUCUGAUGAGUCCCUGAGGACGAAACAG [G17U G31C]	0.86
ACCGGAUGUGCUUAACGGUCUGAUGAGUCCGUGAGGACGAAACAG [U14A C15A]	1.09
ACCGGAUGUGCUUUCCGGUCUGAUGAGUCCGUGAGGACGGAACGG [A40G A44G]	0.571
ACCGCAUGUGCUUUCCGGUAUGAUGAGUCCGUGAGGACGAAACAG [G5C C20A]	0.271
ACCGGAUCUGCUUUCCGGUCUGAUGAGUCCGUGAGGACAAAACAG [G8C G39A]	0.347
ACCGGAUGUGCUUUCCGGUCGGAUGAGUCCGCGAGGACGAAACAG [U21G U32C]	0.523
ACCGUAUGUGCUUUCCGGUCUGAUGAGUCCGUGAGGACGAAACUG [G5U A44U]	0.391
ACCGGAUGUGCUUUCCGGUCUGGUGAGUCCGUCAGGACGAAACAG [A23G G33C]	0.376
ACCGGAUGUGCUUUCCGGUCCGAUGAGGCCGUGAGGACGAAACAG [U21C U28G]	0.703
ACCGUAUGUGCUUUCCGGUCUGCUGAGUCCGUGAGGACGAAACAG [G5U A23C]	0.339
ACCGGAUGUGUUUUCCGGUCUGAUUAGUCCGUGAGGACGAAACAG [C11U G25U]	0.318
ACCGGAUGUACUUUCCGGUCUCAUGAGUCCGUGAGGACGAAACAG [G10A G22C]	0.32
ACCGGAUGUGCUUACCGGUCUAAUGAGUCCGUGAGGACGAAACAG [U14A G22A]	0.36

Variant	self-cleavage
ACCGGAUGUGCUUUCUGGUCUGAUGAGUCGGUGAGGACGAAACAG [C16U C30G]	0.719
ACCGGAUGUGCUUACCGGUCUGAUGAGUCCGUCAGGACGAAACAG [U14A G33C]	0.987
ACCGGAUGUGGUUACCGGUCUGAUGAGUCCGUGAGGACGAAACAG [C11G U14A]	1.25
ACCUGAUGGGCUUUCCGGUCUGAUGAGUCCGUGAGGACGAAACAG [G4U U9G]	0.368
ACCGGAUGUGCUUUCCGGUCUGCUGAGUCGGUGAGGACGAAACAG [A23C C30G]	0.354
ACCGGAUGUGCCUUCCGGUCUGAUGAGUCCGUGAGGACGAGACAG [U12C A41G]	0.358
ACCGGAUCUGCUUUCCGGUCUGAUGAGUCCGUGAGAACGAAACAG [G8C G36A]	0.652
ACCGGAUGUGCUUUCCGGUCUGAUCAGUCCGUGAGGACGAAACUG [G25C A44U]	0.263
ACCGGAUGUGAUUUCCGGUUUGAUGAGUCCGUGAGGACGAAACAG [C11A C20U]	0.681
ACCGGAUGUGCUUUCCGGUCUUAUGAGGCCGUGAGGACGAAACAG [G22U U28G]	0.294
ACCGGAUGUGCUUUCCGGUCUGAUUAGUUCGUGAGGACGAAACAG [G25U C29U]	0.273
ACCGGAUGUGCUUUCCGGUCUGAUGAGUCCGUGAGGUCGAUACAG [A37U A41U]	0.307
ACCGGAUGUGCUUUGCGGUCUGAUGAGUCCGUGUGGACGAAACAG [C15G A34U]	0.904
ACCGGUUGUGCUAUCCGGUCUGAUGAGUCCGUGAGGACGAAACAG [A6U U13A]	0.747
GCCGGAUGUGCUUUCCGGUCUGAUGAGUCCGUGAGGACGAAACAG [A1G]	1.79
ACCGGAUGUGCUUCCCGGUCUGAUGAGUCCGUGAGGACGAGACAG [U14C A41G]	0.312
ACGGGAUGUGCUUUCCGGUAUGAUGAGUCCGUGAGGACGAAACAG [C3G C20A]	0.295
AUCGGAUGUGCUUUCCGGUCUGAUGAUUCCGUGAGGACGAAACAG [C2U G27U]	0.568
ACCGGAUGUGCUUUCCGGUCUGAUGAGUCCGUGAGGGCGAAACAG [A37G]	0.886
ACCGGAUGUGCUUUCCGGUCUGAUGCGUCCUUGAGGACGAAACAG [A26C G31U]	0.727
AACGGAUGUGCUUUCCGGCCUGAUGAGUCCGUGAGGACGAAACAG [C2A U19C]	0.38
ACCGGAUGUACUUUCCGGCCUGAUGAGUCCGUGAGGACGAAACAG [G10A U19C]	0.675
ACCGGAUGUGCUCUCCGGUCUGAUGAGUCCGUGAGGACGACACAG [U13C A41C]	0.247

Variant	self-cleavage
ACCGGAUGUGCUUUCCGGUCUGAUGAGUGCGUGAGGACGAGACAG [C29G A41G]	0.338
ACCGGAUGUGCUUUCCGGUCUGAUGAGUCCGUUACGACGAAACAG [G33U G35C]	0.964
GCCGGAUGUGCUUUCCGGUGUGAUGAGUCCGUGAGGACGAAACAG [A1G C20G]	0.358
ACCGGACGCGCUUUCCGGUCUGAUGAGUCCGUGAGGACGAAACAG [U7C U9C]	1.28
ACCGGCUGUGCUUUCCGGUCUGAUAAGUCCGUGAGGACGAAACAG [A6C G25A]	0.286
ACCGGAUGUGCUUGCCGGUCUGAUGAGUCCGUGAGGACGAGACAG [U14G A41G]	0.3
ACCGGAUGUGUUUUCCGGUCUGAUGAGUCCGUGAGGGCGAAACAG [C11U A37G]	1.12
ACCGGGUGUGCUUUCCGGUCUGAUGAGUCCGUGGGGACGAAACAG [A6G A34G]	0.6
ACUGAAUGUGCUUUCCGGUCUGAUGAGUCCGUGAGGACGAAACAG [C3U G5A]	0.491
ACCGGAUGUGCUUUCCGGUCUUAUGAGUCCGUGAAGACGAAACAG [G22U G35A]	0.335
ACCGGAUGUGCUUUCCGGCCUGAUGAGUCCAUGAGGACGAAACAG [U19C G31A]	0.967
ACCGGCUGUGCUUUCCGGUCUGUUGAGUCCGUGAGGACGAAACAG [A6C A23U]	0.271
ACCGGAUGUGCUUUCCGGUGUGAUGAGUGCGUGAGGACGAAACAG [C20G C29G]	0.35
ACCGGAUGUGCUUUCUGGUCCGAUGAGUCCGUGAGGACGAAACAG [C16U U21C]	0.473
AUCGGAUGUGCUUUCCGGUCUGAUGAGUCCGUUAGGACGAAACAG [C2U G33U]	1.17
ACCGGAUGUGCUUUCCGGUCUGGUGAGUCCCUGAGGACGAAACAG [A23G G31C]	0.442
ACCGGAUGUGCUUUGCGGUAUGAUGAGUCCGUGAGGACGAAACAG [C15G C20A]	0.361
ACCGGAUGUGCUUUCCGGACUGAUGAGUCUGUGAGGACGAAACAG [U19A C30U]	0.369
ACCGAAUGUGCUUUCCGGUCUGAUGAGUCCGUGACGACGAAACAG [G5A G35C]	0.66
ACCGGAUGUGCUUUCCGGUCCGAUCAGUCCGUGAGGACGAAACAG [U21C G25C]	0.308
GCCGGAUGUGCUUUCCGGUCUGAUGAGUCCGUGAUGACGAAACAG [A1G G35U]	0.947
ACCGGAUCUGCUUUCCGGUCUGAUGAGUCCGUGAGGACGAAAUAG [G8C C43U]	0.455
ACGGGAUGUGCUUUCCGGUCUGAUGAGUCCGUGAGGACGAAACGG [C3G A44G]	0.667

Variant	self-cleavage
ACCGGAUGUGCUUUCCGGUCUGAUGAGUCCGUGAGAACGGAACAG [G36A A40G]	0.289
ACCGGAUGUGCUUUCCGCUCUGACGAGUCCGUGAGGACGAAACAG [G18C U24C]	0.477
ACCCGAUGUGCUUUCCGGUCUGAUGAGUCCGUUAGGACGAAACAG [G4C G33U]	0.837
ACCGGAUGUGGUUUCCGGUCUGAUCAGUCCGUGAGGACGAAACAG [C11G G25C]	0.326
ACCGGACGUGCUUUCCGGUGUGAUGAGUCCGUGAGGACGAAACAG [U7C C20G]	0.306
ACAGGAUGUGCUUUCCGGUCUGAUGAGGCCGUGAGGACGAAACAG [C3A U28G]	0.34
GCCGGAUGUGCUUUCCGGUCUGAUGAGUCCGUGAGGACGAAAAAG [A1G C43A]	0.444
ACCGGACGUGCUUUCCGGCCUGAUGAGUCCGUGAGGACGAAACAG [U7C U19C]	0.526
ACCGGUUAUGCUUUCCGGUCUGAUGAGUCCGUGAGGACGAAACAG [A6U G8A]	0.807
ACCGGAUGUGCUUUCCGGUCUGAUGAGUCCGUGAGGACGUAACAU [A40U G45U]	0.398
ACCGGAUGUGCUUUCCGAUCUGAUGAGUCCGUGAGAACGAAACAG [G18A G36A]	0.544
ACCGGAUGUGCUUUCCGCUCUGAUGAGUCCGUGAGGACGAAACAA [G18C G45A]	0.393
ACCCGAUGUGCUUUCCGGUCUGAUGAGUCUGUGAGGACGAAACAG [G4C C30U]	0.703
ACCGGAUGUGCUUUCAGGUCUAAUGAGUCCGUGAGGACGAAACAG [C16A G22A]	0.299
ACCGGAUGUGCUGUCCGGUCUGAUGAGUCCGUGAGGACGAAGCAG [U13G A42G]	0.316
ACCGCAUGUGCUUUCCGGUCUGAUGAGUCCGUGAGGACGACACAG [G5C A41C]	0.249
ACCGGAUGUGCUUUCCGAGCUGAUGAGUCCGUGAGGACGAAACAG [G18A U19G]	0.359
ACCGGAUGGGCUUUCUGGUCUGAUGAGUCCGUGAGGACGAAACAG [U9G C16U]	0.848
ACCGGAUGUGCUUUCCGUUCUGGUGAGUCCGUGAGGACGAAACAG [G18U A23G]	0.288
ACCGGAUGUGUUUUCCUGUCUGAUGAGUCCGUGAGGACGAAACAG [C11U G17U]	0.405
ACCGGAUGUGCUUUCCGGUCUGAUGAGUCCGUAAGGACGAAAGAG [G33A C43G]	0.371
ACCGGAUGUGCUUUCCGUUCUGAUGAGCCCGUGAGGACGAAACAG [G18U U28C]	0.351
